To fix the notation:
B1: Pistol ribozyme (parent)
chain: GGGUCGUUGUUCCAUAAUCGCGUGGAUAUGGCACGCAAGUUUCUACCGGGCACCGUAAAUGUCCGACUGGAGCCGUUCGGGCGGCUAUAAACAGACCUCAGGCCCGAAGCGUGGCGGCACCUGCCGCCGGUGGUAAAAAAGAUCGGAAGAGCACACGUCU

The variants in this data set derive from B1. Description: aptazyme ON/OFF ratio, guanine; higher = stronger switching; co-transcriptional cleavage with and without guanine.
On to U7A G9A C12A C13A, for which the “aptazyme ON/OFF ratio” value amounted to 1.13.
On to U7A G9A C12A C13G, for which the “aptazyme ON/OFF ratio” value amounted to 1.13.
As for U7A G9A C12A C13U, the figure is 1.37; as for U7A G9A U10C U11A C13G, 1.12; as for U7A G9A U10C U11A C13U, 1.19.
U7A G9A U10C U11A C13A: the “aptazyme ON/OFF ratio” value turned out to be 1.15.
Regarding U7A G9C U10A U11A C13G, the “aptazyme ON/OFF ratio” value was 1.03.
As for U7A G9C U10A U11A C13A, the “aptazyme ON/OFF ratio” value came out at 1.11.
Take U7A G9C U10A U11A C13U: the “aptazyme ON/OFF ratio” value came to 1.1.
For U7A G9A U11C C12A C13U, the “aptazyme ON/OFF ratio” value turned out to be 1.16.
Take U7A G9A U11C C12A C13G: the “aptazyme ON/OFF ratio” value came out at 1.14.
As for U7A G9A U11C C12A C13A, the figure is 1.17.
With U7A G9A U10C U11G C13U the figure was 1.25.
For the variant U7A G9A U10C U11G C13G, the “aptazyme ON/OFF ratio” value came to 1.19.
On to U7A G9A U10C U11G C13A, for which the “aptazyme ON/OFF ratio” value came to 1.22.
Take U7A G9A C12G C13U: the “aptazyme ON/OFF ratio” value stood at 1.17.
As to U7A G9A C12G C13A, the “aptazyme ON/OFF ratio” value was found to be 1.12.
On to U7A G9A C12G C13G, for which the “aptazyme ON/OFF ratio” value was 1.24.
As to U7A G9C C12A, the “aptazyme ON/OFF ratio” value worked out at 1.06.
As for U7A G9C C12U, the “aptazyme ON/OFF ratio” value was determined as 1.1.
As for U7A G9C C12G, the figure is 1.08; as for U7A G9A U10C U11G C12U C13U, 1.3.
With U7A G9A U10C U11G C12U C13A the figure was 1.15; with U7A G9A U10C U11G C12U C13G, 1.21; with U7A G9A U10A U11A C12A C13A, 1.41.
With U7A G9A U10A U11A C12A C13U the figure was 1.32; with U7A G9A U10A U11A C12A C13G, 1.13.
Regarding U7A G9A U10A U11G C13G, the “aptazyme ON/OFF ratio” value was 1.11.
In the case of U7A G9A U10A U11G C13U, the “aptazyme ON/OFF ratio” value amounted to 1.12.
In the case of U7A G9A U10A U11G C13A, the “aptazyme ON/OFF ratio” value was 1.29.
With U7A G9C U10A U11A C12G C13A the figure was 1.04; with U7A G9C U10A U11A C12G C13U, 1.1.
With U7A G9C U10A U11A C12G C13G the figure was 1.1; with U7A G9A U10C C13G, 1.06; with U7A G9A U10C C13U, 1.12.
With U7A G9A U10C C13A the figure was 1.06.
With U7A G9A U10A C12A, the “aptazyme ON/OFF ratio” value is 1.3.
As for U7A G9A U10A C12U, the figure is 1.21; as for U7A G9A U10A C12G, 1.21.
With U7A G9A U10C C12U the figure was 1.26.
Consider U7A G9A U10C C12G, for which the “aptazyme ON/OFF ratio” value amounted to 1.34.
Regarding U7A G9A U10C C12A, the “aptazyme ON/OFF ratio” value was 1.43.
With U7A G9A C12G the figure was 2.38; with U7A G9A C12A, 2.25.
As for U7A G9A C12U, the figure is 2.04.
As for U7A G9A C13G, the figure is 1.06.
Turning to U7A G9A C13A, the “aptazyme ON/OFF ratio” value came out at 1.24.
Turning to U7A G9A C13U, the “aptazyme ON/OFF ratio” value was 1.32.
With U7A G9A U11A C13U, the “aptazyme ON/OFF ratio” value was 1.06.
As for U7A G9A U11A C13G, the figure is 1.11; as for U7A G9A U11A C13A, 1.17.
As for U7A G9A U10G U11G C12U, the figure is 1.47.
As for U7A G9A U10G U11G C12G, the figure is 1.38; as for U7A G9A U10G U11G C12A, 1.06; as for U7A C13G, 1.11.
U7A C13A: the “aptazyme ON/OFF ratio” value was found to be 1.47.
With U7A C13U, the “aptazyme ON/OFF ratio” value was determined as 1.58.
Take U7A G9A U10C C12G C13U: the “aptazyme ON/OFF ratio” value was found to be 1.2.
Take U7A G9A U10C C12G C13G: the “aptazyme ON/OFF ratio” value amounted to 1.17.
Regarding U7A G9A U10C C12G C13A, the “aptazyme ON/OFF ratio” value is 1.15.
With U7A G9A U10G U11G C12A C13G the figure was 1.29.
Regarding U7A G9A U10G U11G C12A C13U, the “aptazyme ON/OFF ratio” value amounted to 1.33.
As for U7A G9A U10G U11G C12A C13A, the figure is 1.2; as for U7A G9C U10A U11C C12G C13A, 1.08; as for U7A G9C U10A U11C C12G C13U, 1.17.
With U7A G9C U10A U11C C12G C13G the figure was 1.12; with U7A G9C C12A C13G, 1.04.
In the case of U7A G9C C12A C13U, the “aptazyme ON/OFF ratio” value was determined as 1.1.
In the case of U7A G9C C12A C13A, the “aptazyme ON/OFF ratio” value is 1.07.
With U7A G9A U10C U11G C12G C13G the figure was 1.27.
With U7A G9A U10C U11G C12G C13U the figure was 1.14.
Consider U7A G9A U10C U11G C12G C13A, for which the “aptazyme ON/OFF ratio” value was 1.17.
With U7A G9C U10A C12U C13A the figure was 1.14; with U7A G9C U10A C12U C13G, 1.11.
With U7A G9C U10A C12U C13U the figure was 1.12; with U7A G9A U10G C12G C13A, 1.21; with U7A G9A U10G C12G C13G, 1.11.
With U7A G9A U10G C12G C13U the figure was 1.18.
In the case of U7A G9C U10A C12A C13U, the “aptazyme ON/OFF ratio” value is 1.23.
With U7A G9C U10A C12A C13G the figure was 1.09; with U7A G9C U10A C12A C13A, 1.14.
As for U7A G9A U10C U11A C12G C13A, the figure is 1.19; as for U7A G9A U10C U11A C12G C13U, 1.16; as for U7A G9A U10C U11A C12G C13G, 1.32.
As for U7A G9A U11G C12U C13A, the figure is 1.34.
Turning to U7A G9A U11G C12U C13U, the “aptazyme ON/OFF ratio” value amounted to 1.27.
On to U7A G9A U11G C12U C13G, for which the “aptazyme ON/OFF ratio” value amounted to 1.2.
Turning to U7A G9C U10A, the “aptazyme ON/OFF ratio” value came out at 1.38.
Regarding U7A G9A U10A C12A C13A, the “aptazyme ON/OFF ratio” value was 1.1.
With U7A G9A U10A C12A C13U, the “aptazyme ON/OFF ratio” value was found to be 1.29.
With U7A G9A U10A C12A C13G the figure was 1.07; with U7A G9A U11G C12G C13A, 1.17; with U7A G9A U11G C12G C13U, 1.42.
As for U7A G9A U11G C12G C13G, the figure is 1.24.
With U7A G9A U10G the figure was 1.53; with U7A G9A U10A, 1.52.
In the case of U7A G9A U10C, the “aptazyme ON/OFF ratio” value was found to be 1.96.
With U7A G9A U10A U11A C13U the figure was 1.21.
Turning to U7A G9A U10A U11A C13A, the “aptazyme ON/OFF ratio” value came to 1.15.
Take U7A G9A U10A U11A C13G: the “aptazyme ON/OFF ratio” value was found to be 1.08.
With U7A G9A U11A the figure was 1.46; with U7A G9A U11G, 1.67.
As for U7A G9A U11C, the figure is 1.02; as for U7A G9C U10A C12G C13A, 1.13; as for U7A G9C U10A C12G C13U, 1.17.
Regarding U7A G9C U10A C12G C13G, the “aptazyme ON/OFF ratio” value is 1.14.
Regarding U7A G9A U10A C13G, the “aptazyme ON/OFF ratio” value stood at 1.09.
As for U7A G9A U10A C13U, the figure is 1.29.
Regarding U7A G9A U10A C13A, the “aptazyme ON/OFF ratio” value was determined as 1.26.
With U7A G9C U10A C12G, the “aptazyme ON/OFF ratio” value turned out to be 1.13.
As for U7A G9C U10A C12U, the figure is 1.14; as for U7A G9C U10A C12A, 1.11.
For U7A G9A U10G C12A C13U, the “aptazyme ON/OFF ratio” value was found to be 1.34.
With U7A G9A U10G C12A C13G the figure was 1.15; with U7A G9A U10G C12A C13A, 1.17; with U7A G9A U11C C12G C13A, 1.18.
On to U7A G9A U11C C12G C13U, for which the “aptazyme ON/OFF ratio” value was determined as 1.15.
For the variant U7A G9A U11C C12G C13G, the “aptazyme ON/OFF ratio” value was found to be 1.17.
With U7A G9A U10G U11A C12A C13U the figure was 1.21.
For the variant U7A G9A U10G U11A C12A C13A, the “aptazyme ON/OFF ratio” value is 1.11.
Turning to U7A G9A U10G U11A C12A C13G, the “aptazyme ON/OFF ratio” value was determined as 1.15.
With U7A G9A U11C C12G the figure was 1.18.
With U7A G9A U11C C12U the figure was 1.17; with U7A G9A U11C C12A, 1.18; with U7A G9C U10A U11C C13A, 1.01.
As for U7A G9A U10G C12G, the figure is 1.21.
As for U7A G9A U10G C12U, the “aptazyme ON/OFF ratio” value came out at 1.41.
Regarding U7A G9A U10G C12A, the “aptazyme ON/OFF ratio” value was found to be 1.13.
On to U7A G9A U10G U11A C12A, for which the “aptazyme ON/OFF ratio” value was found to be 1.17.
As for U7A G9A U10G U11A C12U, the figure is 1.05; as for U7A G9A U10G U11A C12G, 1.12; as for U7A G9A U10A U11C C13U, 1.06.
For the variant U7A G9A U10A U11C C13A, the “aptazyme ON/OFF ratio” value worked out at 1.02.
For the variant U7A G9A U10A U11C C13G, the “aptazyme ON/OFF ratio” value turned out to be 1.1.
With U7A G9A U10A U11C C12G C13G the figure was 1.42; with U7A G9A U10A U11C C12G C13A, 1.08; with U7A G9A U10A U11C C12G C13U, 1.2.
As for U7A G9A U10A U11G C12G, the figure is 1.13.
As to U7A G9A U10A U11G C12A, the “aptazyme ON/OFF ratio” value is 1.1.
With U7A G9A U10A U11G C12U the figure was 1.17.
As for U7A G9A U11A C12A C13A, the figure is 1.22.
As for U7A G9A U11A C12A C13U, the figure is 1.44.
As to U7A G9A U11A C12A C13G, the “aptazyme ON/OFF ratio” value amounted to 1.16.
In the case of U7A G9C U10A U11A C12U, the “aptazyme ON/OFF ratio” value is 1.07.
Consider U7A G9C U10A U11A C12G, for which the “aptazyme ON/OFF ratio” value is 1.06.
For U7A G9C U10A U11A C12A, the “aptazyme ON/OFF ratio” value was determined as 1.06.
With U7A G9A U10G U11G C12G C13A the figure was 1.2; with U7A G9A U10G U11G C12G C13U, 1.16.
Turning to U7A G9A U10G U11G C12G C13G, the “aptazyme ON/OFF ratio” value came out at 1.09.
As for U7A G9A C12U C13G, the figure is 1.17.
With U7A G9A C12U C13U the figure was 1.21.
As for U7A G9A C12U C13A, the figure is 1.04; as for U7A, 3.28.
For the variant U7A G9A U10C U11C C13A, the “aptazyme ON/OFF ratio” value was 0.975.
As for U7A G9A U10C U11C C13U, the figure is 1.02; as for U7A G9A U10C U11C C13G, 1.03.
As for U7A G9A U10G U11C C12G C13U, the “aptazyme ON/OFF ratio” value came to 1.1.
With U7A G9A U10G U11C C12G C13A the figure was 1.27; with U7A G9A U10G U11C C12G C13G, 1.18; with U7A G9A U11C C13G, 1.08.
As for U7A G9A U11C C13A, the figure is 1.07.
On to U7A G9A U11C C13U, for which the “aptazyme ON/OFF ratio” value worked out at 1.03.
For U7A G9A U10G U11A, the “aptazyme ON/OFF ratio” value was determined as 1.06.
With U7A G9A U10G U11G the figure was 1.08.
With U7A G9A U10G U11C the figure was 1.06.
As for U7A G9C C12G C13U, the figure is 1.05.
As to U7A G9C C12G C13A, the “aptazyme ON/OFF ratio” value stood at 1.05.

The record behind these values is the RNAGym collection of RNA variant scans (doi:10.1021/acssynbio.7b00057).
